From publication PMC2923024

Tested on: hnRNP A1, P09651-2
Assay: footprinting

## GGAUGUUCUCUUCACUGUGGGAUGAGGUAGUAGGUUGUAUAGUUUUACCCUCACACCCACCACUGGGAGAUAACUAUACAAUCUACUGUCUUUCCUAACGUGAUAGAAAAGUCUGCA [pri-let-7a-1 GGG/CCC]
  binding: no binding
